Key:
[1] = target: human FcεR1α expressed on cells (human) (UniProt P12319); assay: flow cytometry, 70 nM antibody on HEK293/hFcεR1α/hFcεR1β/hFcεR1γ cells pre-incubated with 70 nM human IgE
[2] = target: monkey (cynomolgus) FcεR1α expressed on cells (cynomolgus); assay: flow cytometry, 70 nM antibody on HEK293/mfFcεR1α/hFcεR1β/hFcεR1γ cells pre-incubated with 70 nM human IgE
[3] = target: monkey (cynomolgus) FcεR1α expressed on cells (cynomolgus); assay: flow cytometry, 70 nM antibody on HEK293/mfFcεR1α/hFcεR1β/hFcεR1γ cells, No IgE
[4] = target: human CD3 expressed in Jurkat cells (human) (UniProt P07766); assay: cell-based or functional assay
Chain of human CD3 expressed in Jurkat cells (human) (P07766 23-207 limits assumed, chain 1 of 4): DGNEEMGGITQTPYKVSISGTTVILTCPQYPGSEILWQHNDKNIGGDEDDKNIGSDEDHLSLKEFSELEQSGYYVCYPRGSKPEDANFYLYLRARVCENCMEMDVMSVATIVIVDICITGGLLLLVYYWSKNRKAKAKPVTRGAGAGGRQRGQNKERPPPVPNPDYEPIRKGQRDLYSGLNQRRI
Chain of human CD3 expressed in Jurkat cells (human) (chain, as listed by the source limits assumed, chain 2 of 4): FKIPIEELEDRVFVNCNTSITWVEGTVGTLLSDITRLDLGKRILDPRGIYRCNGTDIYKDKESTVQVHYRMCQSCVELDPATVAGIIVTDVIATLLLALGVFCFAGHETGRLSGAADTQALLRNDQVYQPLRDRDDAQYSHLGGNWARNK
Chain of human CD3 expressed in Jurkat cells (human) (chain, as listed by the source limits assumed, chain 3 of 4): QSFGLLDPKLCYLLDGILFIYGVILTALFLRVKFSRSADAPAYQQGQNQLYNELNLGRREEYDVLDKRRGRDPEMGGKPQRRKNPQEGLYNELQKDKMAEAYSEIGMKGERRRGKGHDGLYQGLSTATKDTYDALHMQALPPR
Chain of human CD3 expressed in Jurkat cells (human) (chain, as listed by the source limits assumed, chain 4 of 4): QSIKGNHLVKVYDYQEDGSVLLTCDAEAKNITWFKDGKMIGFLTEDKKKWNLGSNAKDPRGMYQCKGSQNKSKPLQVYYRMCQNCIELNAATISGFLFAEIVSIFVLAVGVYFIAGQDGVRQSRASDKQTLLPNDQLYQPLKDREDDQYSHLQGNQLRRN

[5] = target: human CD3 expressed in Jurkat cells (human) (UniProt P07766); assay: flow cytometry, 70 nM antibody on Jurkat/NFAT-luc cells, No IgE
[6] = target: human FcεR1α expressed on cells (human) (UniProt P12319); assay: flow cytometry, 70 nM antibody on HEK293/hFcεR1α/hFcεR1β/hFcεR1γ cells, No IgE
[7] = target: mfFcεR1α.MMH (cynomolgus (Macaca fascicularis)); assay: SPR (Biacore 8k), antibody captured on anti-human Fc, mfFcεR1α.MMH injected, 37°C
Chain of mfFcεR1α.MMH (cynomolgus (Macaca fascicularis)) (chain, as listed by the source limits assumed): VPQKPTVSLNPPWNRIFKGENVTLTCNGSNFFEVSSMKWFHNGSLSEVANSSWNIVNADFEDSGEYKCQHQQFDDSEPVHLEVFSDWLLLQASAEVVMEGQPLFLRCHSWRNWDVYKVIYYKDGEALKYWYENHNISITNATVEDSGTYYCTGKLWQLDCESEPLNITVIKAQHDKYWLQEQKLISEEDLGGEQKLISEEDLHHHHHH

[8] = target: mfFcεR1α.MMH (cynomolgus (Macaca fascicularis)); assay: SPR (Biacore 8k), antibody captured on anti-human Fc, mfFcεR1α.MMH injected, 25°C
hFcεR1α.MMH (human) [9] = assay: SPR (Biacore 8k), antibody captured on anti-human Fc, hFcεR1α.MMH injected, 25°C
Chain of hFcεR1α.MMH (human) (chain, as listed by the source limits assumed): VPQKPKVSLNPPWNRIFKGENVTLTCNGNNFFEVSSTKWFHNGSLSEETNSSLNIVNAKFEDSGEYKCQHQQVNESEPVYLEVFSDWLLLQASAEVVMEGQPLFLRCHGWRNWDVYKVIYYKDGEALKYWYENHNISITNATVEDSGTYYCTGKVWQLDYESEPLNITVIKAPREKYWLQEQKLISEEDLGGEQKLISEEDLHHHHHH

hFcεR1α.MMH (human) [10] = assay: SPR (Biacore 8k), antibody captured on anti-human Fc, hFcεR1α.MMH injected, 37°C

Chain of human FcεR1α expressed on cells (human) (P12319 26-257): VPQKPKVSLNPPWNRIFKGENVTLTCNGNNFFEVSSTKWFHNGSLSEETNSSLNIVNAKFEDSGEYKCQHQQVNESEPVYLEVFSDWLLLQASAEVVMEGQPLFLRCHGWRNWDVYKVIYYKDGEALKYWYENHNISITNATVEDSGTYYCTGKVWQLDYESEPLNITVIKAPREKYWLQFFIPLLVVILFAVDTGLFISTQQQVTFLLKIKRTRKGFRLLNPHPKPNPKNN

| Binding Ratio (MFI of Treated/MFI of Unstained) [1] | Binding Ratio (MFI of Treated/MFI of Unstained) [2] | Binding Ratio (MFI of Treated/MFI of Unstained) [3] | Fold Activation, Jurkat/NFAT-luc with HEK293/hFcεR1α/hFcεR1β/hFcεR1γ cells, 10 nM IgE [4] | Fold Activation, Jurkat/NFAT-luc with HEK293/hFcεR1α/hFcεR1β/hFcεR1γ cells, No IgE [4] | Binding Ratio (MFI of Treated/MFI of Unstained) [5] | Binding Ratio (MFI of Treated/MFI of Unstained) [6] | 600 nM mfFceR1a.MMH Bound (RU) [7] | 600 nM mfFceR1a.MMH Bound (RU) [8] | 600 nM hFcεR1α.MMH Bound (RU) (hFcεR1α.MMH (human) [9]) | 600 nM hFcεR1α.MMH Bound (RU) (hFcεR1α.MMH (human) [10]) | Substance |
| --- | --- | --- | --- | --- | --- | --- | --- | --- | --- | --- | --- |
| 1 | 1 | 1 | 1 fold | 1 fold | 2 | 1 |  |  |  |  | Human IgG4 Stealth Control (antibody) |
| 1 | 1 | 1 | 1 fold | 1 fold | 1 | 1 |  |  |  |  | Human IgG4 Control (antibody) |
|  |  |  |  |  |  |  | -9 RU | -9 RU | -5 RU | -2 RU | Isotype Control mAb (antibody) |

Source: patent publication US20200062844A1
